# Source: PMC8672344
# Biological target: Y75H holo-HasAp (heme-loaded hemophore HasAp, Y75H variant) (Pseudomonas aeruginosa) (UniProt G3XD33)
# Assay: SPR
substance,measurement,value
HasR outer membrane receptor in styrene-maleic acid lipid nanodisc (HasR-SMALP),Kd,394 nM
